In the test the target is Mal3 (UniProt Q10113). The test can be described thus: Mal3-GST pull-down from yeast lysate. The note with it: reference: wild-type Klp2-GFP; sites S113,S123.

On to Klp2 (from UniProt Q9US03) Klp2-2A-GFP, for which the “binding against the reference” value is recorded as “stronger”.

The record behind these values is publication PMC3510020.
